For experiment [1], the target named is Cynomolgus monkey FcRn (cynomolgus monkey) (UniProt Q8SPV9). Kind of experiment: SPR (BIAcore T200), antibody captured via anti-Fab, FcRn injected, pH 6, steady state. Background: SPR reads the build-up and loss of mass on a sensor chip optically.
For another experiment, the target named is Human FcRn (human) (UniProt P55899). Described as above.
Human FcRn (human), sequence (P55899 24-297 limits assumed): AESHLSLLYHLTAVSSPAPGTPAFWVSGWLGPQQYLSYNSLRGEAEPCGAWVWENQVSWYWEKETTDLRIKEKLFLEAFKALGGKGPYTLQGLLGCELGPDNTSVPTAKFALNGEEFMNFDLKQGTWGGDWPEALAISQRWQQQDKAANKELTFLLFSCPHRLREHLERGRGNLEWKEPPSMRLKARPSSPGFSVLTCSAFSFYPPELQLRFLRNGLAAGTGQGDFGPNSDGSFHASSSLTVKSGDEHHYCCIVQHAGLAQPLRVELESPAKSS

Cynomolgus monkey FcRn (cynomolgus monkey), sequence (Q8SPV9 24-297 limits assumed): as the sequence (P55899 24-297 limits assumed) above, with N39D, E44Q, G99S, S189G, S190N, L217M, S269T counted along it

Usually Kd stands for the equilibrium constant for the complex coming apart. Consider Anti-gD.hIgG1 (antibody), for which the figures for the Kd (in experiment [1]; in the experiment with Human FcRn (human)) were 900 nM and 700 nM, respectively.
